Data published in article PMC314469, “Protein Interaction Networks by Proteome Peptide Scanning” (PLoS Biology, 2004).

T1: Yfr024 SH3 (LSB3_YEAST), P43603
T1 chain: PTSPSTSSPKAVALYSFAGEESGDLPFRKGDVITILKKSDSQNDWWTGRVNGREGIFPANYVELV

T2: Rvs167 SH3 (RV167_YEAST), P39743
T2 chain: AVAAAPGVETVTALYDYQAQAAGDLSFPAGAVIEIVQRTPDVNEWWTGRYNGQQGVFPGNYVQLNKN

T3: Boi2 SH3 (BOI2_YEAST), P39969
T3 chain: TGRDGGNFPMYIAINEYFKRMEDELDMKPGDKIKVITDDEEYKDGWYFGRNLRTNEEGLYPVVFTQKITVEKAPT

T4: Boi1 SH3 (BOI1_YEAST), P38041
T4 chain: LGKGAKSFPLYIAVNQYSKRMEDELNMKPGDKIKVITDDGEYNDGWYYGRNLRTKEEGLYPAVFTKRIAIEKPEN

T5: Yhr016c SH3 (YSC84_YEAST), P32793
T5 chain: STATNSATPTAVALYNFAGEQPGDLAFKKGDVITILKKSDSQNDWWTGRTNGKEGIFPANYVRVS


Biological target: T1, Yfr024 SH3 (LSB3_YEAST), P43603
Assay: SPOT array

Binder | normalised SPOT signal, Boehringer light units (BLU); mean over the file's lines of this peptide
SMYPGLPSRLEKEL [YDL029W 307-320] | 6190
SNDPIPPPRKVSDV [YGR097W 457-470] | 8060
SNFPDFPLKKYLKN [YER087W 333-346] | 382
SKFPELPSKVHNAV [YGR264C 141-154] | 1170
SLPPTPPYKAHKKK [YBR007C 353-366] | 758
SNSPISPHKLIYKN [YDR216W 473-486] | 0
SNSPQIPKKKVKDQ [YBL004W 1825-1838] | 1830
SKIPMLPSRRTMAG [YHL027W 505-518] | 45200
SLAPVYPLKSLLRI [YDR332W 665-678] | 782
SKGPRTPAKEILEF [YDR206W 310-323] | 380

Next, values leading:

normalised SPOT signal, Boehringer light units (BLU); mean over the file's lines of this peptide | Binder
116 | SNSPSPPEKINNKR [YMR086W 654-667]
272 | SNVPTTPSRELNGT [YNL309W 346-359]
162 | SKDPNRPTKFAFES [YML061C 386-399]
45000 | SKPPQLPPKSSSLR [YJL056C 343-356]
97.9 | SLSPKDPERARLLS [YMR145C 263-276]
1300 | SKVPKAPTRETHIP [YML013W 181-194]
307 | SNNPSKPRKYKTKS [YIL130W 110-123]
16600 | SMSPLPPARANKSD [YLR162W 51-64]
407 | SMTPDSPVKSDLTS [YNL233W 804-817]
1230 | SMEPHSPKKAKSVE [YIL112W 773-786]
126 | SLDPDRPEKDSVEE [YIR032C 171-184]
38.9 | SHSPISPLKIETAP [YOR057W 166-179]

Biological target: T2, Rvs167 SH3 (RV167_YEAST), P39743
Assay: SPOT array

Binder | normalised SPOT signal, Boehringer light units (BLU); mean over the file's lines of this peptide
SMYPGLPSRLEKEL [YDL029W 307-320] | 815
SNDPIPPPRKVSDV [YGR097W 457-470] | 161
SNFPDFPLKKYLKN [YER087W 333-346] | 17.9
SKFPELPSKVHNAV [YGR264C 141-154] | 20.5
SLPPTPPYKAHKKK [YBR007C 353-366] | 29.4
SNSPISPHKLIYKN [YDR216W 473-486] | 51.3
SNSPQIPKKKVKDQ [YBL004W 1825-1838] | 34.4
SKIPMLPSRRTMAG [YHL027W 505-518] | 58400
SLAPVYPLKSLLRI [YDR332W 665-678] | 45.5
SKGPRTPAKEILEF [YDR206W 310-323] | 53.9

Continued, values first:

normalised SPOT signal, Boehringer light units (BLU); mean over the file's lines of this peptide | Binder
47 | SNSPSPPEKINNKR [YMR086W 654-667]
37.4 | SNVPTTPSRELNGT [YNL309W 346-359]
37.7 | SKDPNRPTKFAFES [YML061C 386-399]
140 | SKPPQLPPKSSSLR [YJL056C 343-356]
80.3 | SLSPKDPERARLLS [YMR145C 263-276]
47.3 | SKVPKAPTRETHIP [YML013W 181-194]
42.6 | SNNPSKPRKYKTKS [YIL130W 110-123]
2610 | SMSPLPPARANKSD [YLR162W 51-64]
31.9 | SMTPDSPVKSDLTS [YNL233W 804-817]
85.5 | SMEPHSPKKAKSVE [YIL112W 773-786]
20.5 | SLDPDRPEKDSVEE [YIR032C 171-184]
20.2 | SHSPISPLKIETAP [YOR057W 166-179]

Biological target: T3, Boi2 SH3 (BOI2_YEAST), P39969
Assay: SPOT array

Binder | normalised SPOT signal, Boehringer light units (BLU); mean over the file's lines of this peptide
SMYPGLPSRLEKEL [YDL029W 307-320] | 119
SNDPIPPPRKVSDV [YGR097W 457-470] | 13.3
SNFPDFPLKKYLKN [YER087W 333-346] | 15.4
SKFPELPSKVHNAV [YGR264C 141-154] | 32.6
SLPPTPPYKAHKKK [YBR007C 353-366] | 22.9
SNSPISPHKLIYKN [YDR216W 473-486] | 0
SNSPQIPKKKVKDQ [YBL004W 1825-1838] | 64
SKIPMLPSRRTMAG [YHL027W 505-518] | 4640
SLAPVYPLKSLLRI [YDR332W 665-678] | 54.3
SKGPRTPAKEILEF [YDR206W 310-323] | 44.4

Now from value to binder:

normalised SPOT signal, Boehringer light units (BLU); mean over the file's lines of this peptide | Binder
51.3 | SNSPSPPEKINNKR [YMR086W 654-667]
71.4 | SNVPTTPSRELNGT [YNL309W 346-359]
37.9 | SKDPNRPTKFAFES [YML061C 386-399]
6.6 | SKPPQLPPKSSSLR [YJL056C 343-356]
38.1 | SLSPKDPERARLLS [YMR145C 263-276]
36.6 | SKVPKAPTRETHIP [YML013W 181-194]
35.7 | SNNPSKPRKYKTKS [YIL130W 110-123]
460 | SMSPLPPARANKSD [YLR162W 51-64]
38.5 | SMTPDSPVKSDLTS [YNL233W 804-817]
72.7 | SMEPHSPKKAKSVE [YIL112W 773-786]
46.2 | SLDPDRPEKDSVEE [YIR032C 171-184]
47 | SHSPISPLKIETAP [YOR057W 166-179]

Biological target: T4, Boi1 SH3 (BOI1_YEAST), P38041
Assay: SPOT array

Binder | normalised SPOT signal, Boehringer light units (BLU); mean over the file's lines of this peptide
SMYPGLPSRLEKEL [YDL029W 307-320] | 77.3
SNDPIPPPRKVSDV [YGR097W 457-470] | 76.6
SNFPDFPLKKYLKN [YER087W 333-346] | 59.5
SKFPELPSKVHNAV [YGR264C 141-154] | 105
SLPPTPPYKAHKKK [YBR007C 353-366] | 114
SNSPISPHKLIYKN [YDR216W 473-486] | 71.5
SNSPQIPKKKVKDQ [YBL004W 1825-1838] | 698
SKIPMLPSRRTMAG [YHL027W 505-518] | 2650
SLAPVYPLKSLLRI [YDR332W 665-678] | 7610
SKGPRTPAKEILEF [YDR206W 310-323] | 176

More lines, now with the values ahead:

normalised SPOT signal, Boehringer light units (BLU); mean over the file's lines of this peptide | Binder
61.1 | SNSPSPPEKINNKR [YMR086W 654-667]
33.2 | SNVPTTPSRELNGT [YNL309W 346-359]
47.1 | SKDPNRPTKFAFES [YML061C 386-399]
74.2 | SKPPQLPPKSSSLR [YJL056C 343-356]
79 | SLSPKDPERARLLS [YMR145C 263-276]
23.4 | SKVPKAPTRETHIP [YML013W 181-194]
74.1 | SNNPSKPRKYKTKS [YIL130W 110-123]
120 | SMSPLPPARANKSD [YLR162W 51-64]
85.9 | SMTPDSPVKSDLTS [YNL233W 804-817]
58.3 | SMEPHSPKKAKSVE [YIL112W 773-786]
83.1 | SLDPDRPEKDSVEE [YIR032C 171-184]
196 | SHSPISPLKIETAP [YOR057W 166-179]

Biological target: T5, Yhr016c SH3 (YSC84_YEAST), P32793
Assay: SPOT array

Binder | normalised SPOT signal, Boehringer light units (BLU); mean over the file's lines of this peptide
SMYPGLPSRLEKEL [YDL029W 307-320] | 3680
SNDPIPPPRKVSDV [YGR097W 457-470] | 2640
SNFPDFPLKKYLKN [YER087W 333-346] | 201
SKFPELPSKVHNAV [YGR264C 141-154] | 132
SLPPTPPYKAHKKK [YBR007C 353-366] | 108
SNSPISPHKLIYKN [YDR216W 473-486] | 143
SNSPQIPKKKVKDQ [YBL004W 1825-1838] | 151
SKIPMLPSRRTMAG [YHL027W 505-518] | 103000
SLAPVYPLKSLLRI [YDR332W 665-678] | 173
SKGPRTPAKEILEF [YDR206W 310-323] | 0

Next, values leading:

normalised SPOT signal, Boehringer light units (BLU); mean over the file's lines of this peptide | Binder
136 | SNSPSPPEKINNKR [YMR086W 654-667]
210 | SNVPTTPSRELNGT [YNL309W 346-359]
236 | SKDPNRPTKFAFES [YML061C 386-399]
2910 | SKPPQLPPKSSSLR [YJL056C 343-356]
158 | SLSPKDPERARLLS [YMR145C 263-276]
218 | SKVPKAPTRETHIP [YML013W 181-194]
61.8 | SNNPSKPRKYKTKS [YIL130W 110-123]
17100 | SMSPLPPARANKSD [YLR162W 51-64]
533 | SMTPDSPVKSDLTS [YNL233W 804-817]
133 | SMEPHSPKKAKSVE [YIL112W 773-786]
93.6 | SLDPDRPEKDSVEE [YIR032C 171-184]
45.7 | SHSPISPLKIETAP [YOR057W 166-179]
